{
  "source": "paper PMC7866087",
  "about": "“Evaluation of Computationally Designed Peptides against TWEAK, a Cytokine of the Tumour Necrosis Factor Ligand Family” (International Journal of Molecular Sciences, 2021)",
  "molecules": {"B1": {"name": "tumour necrosis factor-like weak inducer of apoptosis (protein, UniProt O43508 94-249, looked up)", "Tumor necrosis factor ligand …": "SAPKGRKTRARRAIAAHYEVHPRPGQDGAQAGVDGTVSGWEEARINSSSPLRYNRQIGEFIVTRAGLYYLYCQVHFDEGKAVYLKLDLLVDGVLALRCLEEFSATAASSLGPQLRLCQVSGLLALRPGSSLRIRTLPWAHLKAAPFLTYFGLFQVH"}},
  "key": {"[1]": {"tested_on": "HT29 cells, NIK expression", "assay": "Time-course RT-PCR of NIK (MAP4K4), HT29", "format": "cell-based, human", "details": "TWEAK, 6 to 24 h"}, "[2]": {"tested_on": "BRV5 cells, NIK expression", "assay": "Time-course RT-PCR of NIK (MAP4K4), BRV5", "format": "cell-based, human", "details": "TWEAK, 6 to 24 h", "description": "The final aspect to consider in the characterization of BRV5 cells prior to the screening of peptides was to assess when the signalling pathway mediated by TWEAK-Fn14 will be at its peak of activity. To that end, we monitored the level of expression of the primary kinase NIK (MAP4K4) at different time points. It has been reported that transcriptional activation of Fn14 would be operated mainly by the NF-κB non-canonical pathway, through inducing the primary kinase NIK (MAP4K4) that phosphorylates IKKα [26]. Thus, we assessed the level of expression of NIK from 6 to 24 h after cells were treated with TWEAK in a time-course RT-PCR (Figure 2). […] From these experiments we concluded that TWEAK-Fn14 pathway is mainly activated at 6 h after treating cells, and thus we designed out experiments to check the inhibitory ability of the peptides at this specific time point.\nFigure 2 NIK activation in brain metastatic cells. Metastatic cells were primed with TWEAK in a time-course RT-PCR experiment. […] Bars and error bars represent the average and standard deviation as calculated from three replicates respectively."}},
  "data": [
    {"molecule": "B1", "values": [
      {"measurement": "NIK expression", "setting": "[1]", "value": "highest NIK expression, occurred 6 h after"},
      {"measurement": "NIK expression", "setting": "[2]", "value": "increased in TWEAK stimulated BRV5 cells after 6 h of treatment, decreasing at 12 h and partially recovered at 24 h"}
    ]}
  ]
}
